The target in test [1] is T1, human VEGFA-121 (VEGF-A-121-His) (human, UniProt P15692-9 27-147).
T1 construct: Captured on the chip through an anti-His antibody; not shown: His tag
T1 sequence (looked up): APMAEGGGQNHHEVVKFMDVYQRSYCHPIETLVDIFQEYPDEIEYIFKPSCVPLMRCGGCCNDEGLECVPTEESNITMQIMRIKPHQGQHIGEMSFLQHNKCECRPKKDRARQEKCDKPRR
As to the kind of experiment: SPR (Biacore T200), VEGF-A-121-His captured by anti-His antibody, bispecific antibody as analyte, 1:1 Langmuir. How it is done:
Around 10000 (RU) of anti His antibody (1 μg/ml anti His antibody; Order Code: 28995056; GE Healthcare Bio-Sciences AB, Sweden) were coupled on a Series S CM5 chip (GE Healthcare BR-1005-30) at pH 5.0 by using an amine coupling kit supplied by the GE Healthcare. HBS-N (10 mM HEPES, 150 mM NaCl pH 7.4, GE Healthcare) was used as running buffer during the immobilization procedure. For the following kinetic characterization, sample and running buffer was PBS-T (10 mM phosphate buffered saline including 0.05% Tween20) at pH 7.4. The flow cell was set to 25° C.—and the sample block set to 12° C.—and primed with running buffer twice prior to kinetic characterization.
(§1) Binding of the multispecific antibodies to their respective target antigens, i.e. ANG2 and VEGF, was assessed by Biacore® as described in the general methods section.
In general terms: In SPR one partner is held on a chip, and binding of the other changes the refractive index at the surface.

Test [2] concerns the target T2, human Ang-2-RBD-Fc (human, UniProt O15123 275-496, limits assumed).
T2 construct: domain: RBD; Analyte in solution; not shown: Fc part
T2 sequence (looked up): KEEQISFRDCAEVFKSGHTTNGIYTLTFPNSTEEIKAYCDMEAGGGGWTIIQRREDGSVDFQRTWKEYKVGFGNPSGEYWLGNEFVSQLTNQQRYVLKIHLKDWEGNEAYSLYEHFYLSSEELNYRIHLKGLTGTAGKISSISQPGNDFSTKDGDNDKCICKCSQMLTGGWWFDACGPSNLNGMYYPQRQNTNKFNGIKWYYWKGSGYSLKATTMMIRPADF
As to the kind of experiment: SPR (Biacore T200), bispecific antibody captured by anti-human F(ab')2, Ang2-RBD-Fc as analyte, 1:1 Langmuir, apparent KD. How it is done: (§2) Binding of indicated antibodies to human Ang-2-RBD-Fc was investigated by surface plasmon resonance using a BIACORE® T200 instrument (GE Healthcare). Around 8000 (RU) of goat anti human F(ab′)₂ (10 μg/ml anti human F(ab)′₂; Order Code: 28958325; GE Healthcare Bio-Sciences AB, Sweden) were coupled on a Series S CMS chip (GE Healthcare BR-1005-30) at pH 5.0 by using an amine coupling kit supplied by the GE Healthcare. HBS-N (10 mM HEPES, 150 mM NaCl pH 7.4, GE Healthcare) was used as running buffer during the immobilization procedure. For the following kinetic characterization, sample and running buffer was PBS-T (10 mM phosphate buffered saline including 0.05% Tween20) at pH 7.4. The flow cell was set to 25° C.—and the sample block set to 12° C.—and primed with running buffer twice prior to kinetic characterization.
(§3) The bispecific antibody was captured by injecting a 5 nM solution for 25 sec at a flow of 5 μl/min. The association was measured by injection of human Ang2-RBD-Fc in various concentrations in solution for 120 sec at a flow of 30 μl/min starting with 100 nM in 1:3 serial dilutions. The dissociation phase was monitored for up to 180 sec and triggered by switching from the sample solution to running buffer. The surface was regenerated by 60 sec washing with a Glycine pH 2.1 solution at a flow rate of 30 μl/min. Bulk refractive index differences were corrected by subtracting the response obtained from a goat anti human F(ab′)₂ surface. Blank injections are also subtracted (=double referencing). For calculation of apparent KD the Langmuir 1:1 model was used.

In test [3] the target is T2, human Ang-2-RBD-Fc. As to the kind of experiment: SPR (Biacore T200), bispecific antibody captured by anti-human F(ab')2, Ang2-RBD-Fc as analyte, 1:1 Langmuir. How it is done: as §2, §3, §1

B1: Ang2VEGF-0454 (bispecific antibody, human IgG1, kappa)
light 1: QPGLTQPPSVSVAPGQTARITCGGNNIGSKSVHWYQQKPGQAPVLVVYDDSDRPSGIPERFSGSNSGNTATLTISRVEAGDEADYYCQVWDSSSDHYVFGTGTKVTVLRTVAAPSVFIFPPSDEQLKSGTASVVCLLNNFYPREAKVQWKVDNALQSGNSQESVTEQDSKDSTYSLSSTLTLSKADYEKHKVYACEVTHQGLSSPVTKSFNRGEC
heavy 1: not shown
light 2: DIQMTQSPSSLSASVGDRVTITCSASQDISNYLNWYQQKPGKAPKVLIYFTSSLHSGVPSRFSGSGSGTDFTLTISSLQPEDFATYYCQQYSTVPWTFGQGTKVEIKSSASTKGPSVFPLAPSSKSTSGGTAALGCLVKDYFPEPVTVSWNSGALTSGVHTFPAVLQSSGLYSLSSVVTVPSSSLGTQTYICNVNHKPSNTKVDKKVEPKSC
heavy 2: not shown
notes: also called Ang2VEGF-0454-0002; Ang2VEGF-0454-0002 (control)
As to B1, in test [1], the Kd stood at 4 nM, the koff is 8.65e-05 s⁻¹ and the kon was 20400 M⁻¹ s⁻¹. Moreover, in the test with human Ang-2-RBD-Fc [2], the Kd was 2 nM. In the test with human Ang-2-RBD-Fc [3], this molecule came in with a koff of 0.0182 s⁻¹ and a kon of 1.08e+07 M⁻¹ s⁻¹.

B2: Ang2VEGF-0460 (bispecific antibody, human IgG1, kappa)
light 1: QPGLTQPPSVSVAPGQTARITCGGNNIGSKSVHWYQQKPGQAPVLVVYDDSDRPSGIPERFSGSNSGNTATLTISRVEAGDEADYYCQVWDSSSDHYVFGTGTKVTVLRTVAAPSVFIFPPSDEQLKSGTASVVCLLNNFYPREAKVQWKVDNALQSGNSQESVTEQDSKDSTYSLSSTLTLSKADYEKHKVYACEVTHQGLSSPVTKSFNRGEC
heavy 1: not shown
light 2: DIQMTQSPSSLSASVGDRVTITCSASQDISNYLNWYQQKPGKAPKVLIYFTSSLHSGVPSRFSGSGSGTDFTLTISSLQPEDFATYYCQQYSTVPWTFGQGTKVEIKSSASTKGPSVFPLAPSSKSTSGGTAALGCLVKDYFPEPVTVSWNSGALTSGVHTFPAVLQSSGLYSLSSVVTVPSSSLGTQTYICNVNHKPSNTKVDEKVEPKSC
heavy 2: not shown
notes: CrossMAb CH1-CL, knob-into-hole with S354C/Y349C; also called Ang2VEGF-0460-0002
In test [1], B2 yielded a Kd of 6 nM, a koff of 8.18e-05 s⁻¹ and a kon of 14200 M⁻¹ s⁻¹. Further, the Kd with human Ang-2-RBD-Fc [2] turned out to be 2 nM. In the test with human Ang-2-RBD-Fc [3], this molecule returned a koff of 0.0163 s⁻¹ and a kon of 8.76e+06 M⁻¹ s⁻¹.

B3: Ang2VEGF-0459 (bispecific antibody, human IgG1, kappa)
light 1: QPGLTQPPSVSVAPGQTARITCGGNNIGSKSVHWYQQKPGQAPVLVVYDDSDRPSGIPERFSGSNSGNTATLTISRVEAGDEADYYCQVWDSSSDHYVFGTGTKVTVLRTVAAPSVFIFPPSDEQLKSGTASVVCLLNNFYPREAKVQWKVDNALQSGNSQESVTEQDSKDSTYSLSSTLTLSKADYEKHKVYACEVTHQGLSSPVTKSFNRGEC
heavy 1: not shown
light 2: DIQMTQSPSSLSASVGDRVTITCSASQDISNYLNWYQQKPGKAPKVLIYFTSSLHSGVPSRFSGSGSGTDFTLTISSLQPEDFATYYCQQYSTVPWTFGQGTKVEIKSSASTKGPSVFPLAPSSKSTSGGTAALGCLVEDYFPEPVTVSWNSGALTSGVHTFPAVLQSSGLYSLSSVVTVPSSSLGTQTYICNVNHKPSNTKVDKKVEPKSC
heavy 2: not shown
notes: CrossMAb CH1-CL, knob-into-hole with S354C/Y349C; also called Ang2VEGF-0459-0002
Take B3: the Kd was 4 nM in test [1] and 2 nM with human Ang-2-RBD-Fc [2]. In addition, the koff in test [1] stood at 7.19e-05 s⁻¹; in the test with human Ang-2-RBD-Fc [3] it was 0.0199 s⁻¹. For the same molecule, the results for the kon (in test [1]; with human Ang-2-RBD-Fc [3]) were 17000 M⁻¹ s⁻¹ and 8.8e+06 M⁻¹ s⁻¹, respectively.

B4: Ang2VEGF-0462 (bispecific antibody, human IgG1, kappa)
light 1: QPGLTQPPSVSVAPGQTARITCGGNNIGSKSVHWYQQKPGQAPVLVVYDDSDRPSGIPERFSGSNSGNTATLTISRVEAGDEADYYCQVWDSSSDHYVFGTGTKVTVLRTVAAPSVFIFPPSDKRLKSGTASVVCLLNNFYPREAKVQWKVDNALQSGNSQESVTEQDSKDSTYSLSSTLTLSKADYEKHKVYACEVTHQGLSSPVTKSFNRGEC
heavy 1: not shown
light 2: DIQMTQSPSSLSASVGDRVTITCSASQDISNYLNWYQQKPGKAPKVLIYFTSSLHSGVPSRFSGSGSGTDFTLTISSLQPEDFATYYCQQYSTVPWTFGQGTKVEIKSSASTKGPSVFPLAPSSKSTSGGTAALGCLVKDYFPEPVTVSWNSGALTSGVHTFPAVLQSSGLYSLSSVVTVPSSSLGTQTYICNVNHKPSNTKVDKKVEPKSC
heavy 2: not shown
notes: CrossMAb CH1-CL, knob-into-hole with S354C/Y349C; also called Ang2VEGF-0462-0002
Take B4: in test [1], the Kd stood at 4 nM, the koff stood at 7.52e-05 s⁻¹ and the kon amounted to 21200 M⁻¹ s⁻¹. In addition, in the test with human Ang-2-RBD-Fc [2], the Kd was 2 nM. Also, in the test with human Ang-2-RBD-Fc [3], the koff was 0.0252 s⁻¹ and the kon is 1.21e+07 M⁻¹ s⁻¹.

B5: Ang2VEGF-0461 (bispecific antibody, human IgG1, kappa)
light 1: QPGLTQPPSVSVAPGQTARITCGGNNIGSKSVHWYQQKPGQAPVLVVYDDSDRPSGIPERFSGSNSGNTATLTISRVEAGDEADYYCQVWDSSSDHYVFGTGTKVTVLRTVAAPSVFIFPPSDKRLKSGTASVVCLLNNFYPREAKVQWKVDNALQSGNSQESVTEQDSKDSTYSLSSTLTLSKADYEKHKVYACEVTHQGLSSPVTKSFNRGEC
heavy 1: not shown
light 2: DIQMTQSPSSLSASVGDRVTITCSASQDISNYLNWYQQKPGKAPKVLIYFTSSLHSGVPSRFSGSGSGTDFTLTISSLQPEDFATYYCQQYSTVPWTFGQGTKVEIKSSASTKGPSVFPLAPSSKSTSGGTAALGCLVKDYFPEPVTVSWNSGALTSGVHTFPAVLQSSGLYSLSSVVTVPSSSLGTQTYICNVNHKPSNTKVDKKVEPKSC
heavy 2: not shown
notes: CrossMAb CH1-CL, knob-into-hole with S354C/Y349C; also called Ang2VEGF-0461-0002
As for B5, the Kd in test [1] was 4 nM; with human Ang-2-RBD-Fc [2], 2 nM. Further, the koff in test [1] worked out at 7.67e-05 s⁻¹; with human Ang-2-RBD-Fc [3], 0.0163 s⁻¹. Further, the kon is 19200 M⁻¹ s⁻¹ in test [1] and 1.07e+07 M⁻¹ s⁻¹ in the test with human Ang-2-RBD-Fc [3].

B6: Ang2VEGF-0456 (bispecific antibody, human IgG1, kappa)
light 1: QPGLTQPPSVSVAPGQTARITCGGNNIGSKSVHWYQQKPGQAPVLVVYDDSDRPSGIPERFSGSNSGNTATLTISRVEAGDEADYYCQVWDSSSDHYVFGTGTKVTVLRTVAAPSVFIFPPSDEKLKSGTASVVCLLNNFYPREAKVQWKVDNALQSGNSQESVTEQDSKDSTYSLSSTLTLSKADYEKHKVYACEVTHQGLSSPVTKSFNRGEC
heavy 1: not shown
light 2: DIQMTQSPSSLSASVGDRVTITCSASQDISNYLNWYQQKPGKAPKVLIYFTSSLHSGVPSRFSGSGSGTDFTLTISSLQPEDFATYYCQQYSTVPWTFGQGTKVEIKSSASTKGPSVFPLAPSSKSTSGGTAALGCLVKDYFPEPVTVSWNSGALTSGVHTFPAVLQSSGLYSLSSVVTVPSSSLGTQTYICNVNHKPSNTKVDKKVEPKSC
heavy 2: not shown
notes: CrossMAb CH1-CL, knob-into-hole with S354C/Y349C; also called Ang2VEGF-0456-0002
For B6, in test [1], the Kd is 4 nM, the koff came out at 8.4e-05 s⁻¹ and the kon turned out to be 21000 M⁻¹ s⁻¹. In addition, the Kd with human Ang-2-RBD-Fc [2] worked out at 2 nM. Moreover, in the test with human Ang-2-RBD-Fc [3], the koff came to 0.0252 s⁻¹ and the kon came out at 1.16e+07 M⁻¹ s⁻¹.

B7: Ang2VEGF-0455 (bispecific antibody, human IgG1, kappa)
light 1: QPGLTQPPSVSVAPGQTARITCGGNNIGSKSVHWYQQKPGQAPVLVVYDDSDRPSGIPERFSGSNSGNTATLTISRVEAGDEADYYCQVWDSSSDHYVFGTGTKVTVLRTVAAPSVFIFPPSDEKLKSGTASVVCLLNNFYPREAKVQWKVDNALQSGNSQESVTEQDSKDSTYSLSSTLTLSKADYEKHKVYACEVTHQGLSSPVTKSFNRGEC
heavy 1: not shown
light 2: DIQMTQSPSSLSASVGDRVTITCSASQDISNYLNWYQQKPGKAPKVLIYFTSSLHSGVPSRFSGSGSGTDFTLTISSLQPEDFATYYCQQYSTVPWTFGQGTKVEIKSSASTKGPSVFPLAPSSKSTSGGTAALGCLVKDYFPEPVTVSWNSGALTSGVHTFPAVLQSSGLYSLSSVVTVPSSSLGTQTYICNVNHKPSNTKVDKKVEPKSC
heavy 2: not shown
notes: CrossMAb CH1-CL, knob-into-hole with S354C/Y349C; also called Ang2VEGF-0455-0002
In test [1], B7 registered a Kd of 7 nM, a koff of 9.01e-05 s⁻¹ and a kon of 12600 M⁻¹ s⁻¹. In addition, in the test with human Ang-2-RBD-Fc [2], the Kd came to 2 nM. Also, in the test with human Ang-2-RBD-Fc [3], the koff is 0.0227 s⁻¹ and the kon came to 1.06e+07 M⁻¹ s⁻¹.

The term koff denotes the first-order rate constant of dissociation. Low readings indicate slow dissociation, high ones fast dissociation. The kon is the second-order rate constant of association. Read a low kon as slower complex formation.
